Results taken from US20100181197A1, “ISOELECTRIC POINT MARKERS” (GE HEALTHCARE BIO-SCIENCES AB, priority 2007, published 2010).
Ends that are not written are not given here.

Tests used:
[1] = Experimentally determined pI-values of tryptic peptides focused in IPG strips; format: physicochemical; settings: tryptic yeast peptides focused in IPG strips 3.7-4.05
Source text: Both methods are based on the equilibria of amino acid residues participating in reactions with water and can be described with one pK-value for each type of residue, which is independent of the nature of neighbouring amino acids. The consequence of this assumption is that for large groups of tryptic peptides, the same pI-value will be predicted. […] The approaches described above will result in the same pI-value for all these peptides. The value predicted at the Expasy server is 4.53, which can be compared with the value resulting from the experimental distribution, i.e. 4.49±0.075.
It would be expected that the presence of two negatively charged amino acid residues at limited distances from each other along the amino acid chain should result in an increase of the pK-values involved and a concomitant increase of the pI-value, while two positively charged residues at limited distances from each other along the peptide chain could be expected to give reversed effect, i.e. a decrease in pK-values and a concomitant decrease of the pI-value. In reality, no such effects can be detected. […] In the peptides, C-terminal amino acids are either lysine or arginine. […] This is explained by the presence of two oppositely charged amino acid residues in the chain, thereby favouring configurations with a short distance between the two residues. As a consequence, pK-values are affected also when these residues are separated by up to 5 amino acid residues. On the other hand, the presence of two equally charged residues favours configurations with the longest possible distance between the charged groups and for neighbouring charged residues, the average distance becomes too long to generate a detectable effect on pK and pI values.
The C-terminal, which in tryptic digests is either lysine or arginine contains both a positively charged group and a negatively charged group, gives notable effects on resulting pI-values only when the neighbouring group is charged. At larger distances, for peptides having two internal glutamic acid residues (no glutamic acid in position 1-6), the C-terminal amino acid being either lysine or arginine, the effect on pI is negligible (Table 2).
3.1 Yeast proteins (Saccharomyces cerevisiae, type II (1 gram) were dissolved in a 10 ml solution containing 50 mM Tris-HCl pH 8.0, 6 M urea and 10 mM DDT. The solution was allowed to stand for 1 hour at 37° C. and then allowed to react with iodoacetamide (addition of 250 μl 0.8 M iodoacetamide solution) for 30 minutes at room temperature to […] the cysteine groups. The sample was then sonicated 5 times for 30 seconds followed by dilution of the sample in 50 mM Tris-HCl, 1 mM CaCl2 (1 ml sample to 9 ml Tris-Cl buffer solution). 2.5 ml of diluted sample was added to a container with 250 μg trypsin (4 containers for 10 ml diluted sample) and digestion was allowed to proceed for 2 hours at 37° C. The sample was then concentrated by evaporation to 2 ml. 1 ml of digested concentrated sample was then added to a NAP-10 column pre-equilibrated with 15 ml 8 M urea solution and the sample was eluted with 1.5 ml urea. After a protein determination the sample was aliquoted and frozen until used.
A total of 6612 tryptic yeast peptides have been identified after focusing in IPG strips 3.7-4.05. Sixteen of these peptides have a structure (Table 5) which should give them a pI in close agreement with the pI of the marker. The average value found for these peptides 3.80±0.03 is in reasonable agreement with the value found for the pI marker.

[2] = Isoelectric focusing of CY5-labelled pI markers in IPG strips, fluorescence scan; format: physicochemical; settings: for pI (exp) pI/marker: marker reacted at C-terminal lysine with CY5, experimental pI
Method: The amino acid sequences of the isoelectric point markers were selected essentially as described in Shimura, K. et al, Electrophoresis, (2000), 21, 603-610. The markers contain a minimum of two […] groups with pK values in the vicinity of the pI value of the corresponding marker. The pH scale is a pH scale defined for isoelectric focussing in 8M urea and 20° C. as described in Bjellqvist, B. et al, Electrophoresis, (1993), 14, 1357-1365, Bjellqvist, B. et al, Electrophoresis, (1994), 15, 529-539.
3.2 Sample application was performed with polyacrylamide gel pieces, cast as 1 mm thick gel of the size 260×110 mm on a GelBond PAGE film. In addition to acrylamide (38.8 gram/litre) and bisacrylamide (1.2 gram/litre) the gel polymerising solution contained 15.0 mM Immobiline pK 3.6 and 5.9 mM Immobiline pK 9.3. The polymerisation initiators used were ammonium persulfate and tetramethyl ethylenediamine. The gel was extensively washed in water (10 wash cycles of 20 minutes using 200 ml water/wash). To the last wash was added 2% glycerol. The gel was then dried and cut to generate a number sample application gel pieces of the size 43×7 mm.
Four, 22 cm long IPG strips were re-swollen overnight in 250 μl 8 M urea solution containing 1% Pharmalyte pH 2.5-5 and a trace of bromophenol blue. In parallel, four sample application gel pieces were re-swollen in 315 μl sample solution containing 300 μg yeast protein in 8 M urea to which 0.3 μg of the pI marker had been added.
The four re-swollen IPG strips were positioned in a ceramic manifold in the IPGPHOR™ 3 with the GelBond film downwards. At the basic/cathodic ends of the IPG strips, paper electrode wicks (10×7×1 mm) to which 150 ul water had been added, were positioned on top of the IPG strips with an overlap of 2 mm to establish electric contact. At the anodic end, the wetted electrode wick was positioned 39 mm away from the acidic end of the IPG strip. The re-swollen acidic sample application gel was positioned with the gel side down as a bridge between the paper electrode wick and the IPG strip to give contact both with the paper wick and with the IPG strip through a 2 mm overlap region. The anodic and cathodic electrodes were finally positioned on the anodic and cathodic paper electrode wicks respectively and a light pressure was applied on the back of the sample application gels at the over lap regions with the paper electrode wicks and the IPG strips respectively.
3.3 Focusing was then performed at 20° C. with maximum current set to 50 uA/strip with the following voltage settings:
The focusing experiment was performed with current limitations from 1000V onwards; 2500 V was reached after 5 hours and the voltage only changed slowly to reach a final voltage of 2715 V after 52 hours 23 minutes and a total volthourproduct of 129 kilovolthours.
Upon completion, the gel strips were transferred to a TYPHOON™ 9400 imager and scanned in the fluorescence mode at 633 nm (FIG. 3). From the focusing positions the pI-value for the marker was determined to be 3.86.
Focusing was performed in IPG strips pH 3.4-4.9 containing a non-linear pH-gradient adjusted to give an even distribution of peptides in the focused strip. The experiment was run essentially as described in Example 3. For sample application, the same type of polyacrylamide gel applicator was used, this time re-swollen in an 8M urea solution containing 30 μg of the digested yeast proteins and 0.3 μg of each of the four pI-markers. Focusing was continued for 47 hours 45 minutes and the total volthourproduct was 207 kVh.

Substance	pI-value [1]	pI (exp) pI/marker [2]	further results
DSDVTWLYGPIVR [tryptic yeast peptide identified after focusing in IPG strips 3.7-4.05]	3.800		
H2N-Glu-Gly-Asp-Gly-Lys(CY™5)-COOH (H-EGDGK(Cy5)-OH) [Compound xxii]		4.18	
DQDSAVVSSNIK [tryptic yeast peptide identified after focusing in IPG strips 3.7-4.05]	3.823		
H2N-Gly-Glu-Gly-Gly-Glu-Gly-Glu-Lys(CY™5)-COOH (H-GEGGEGEK(Cy5)-OH) [xix]		4.22	
DGDYNLVGSK [tryptic yeast peptide identified after focusing in IPG strips 3.7-4.05]	3.746		
H2N-Gly-Gly-Gly-Gly-Glu-Glu-Lys(CY™5)-COOH (H-GGGGEEK(Cy5)-OH) [Compound xxi]		4.56	
DLDAAQGTLK [tryptic yeast peptide identified after focusing in IPG strips 3.7-4.05]	3.815		
H2N-Asp-Gly-Asp-Gly-Lys(CY™5)-COOH (H-DGDGK(Cy5)-OH) [Compound xvii]		3.86	pI-value for the marker from focusing positions ([2]; linear IPG pH 3.70-4.05, 22 cm strip, 8 M urea, 20° C., 129 kVh, 0.3 μg/strip): 3.86
H2N-Gly-Glu-Glu-Gly-Gly-Lys(CY™5)-COOH [Compound xx]		4.44	
H2N-Gly-Asp-Gly-Gly-Asp-Gly-Gly-Lys(CY™5)-COOH [xviii]		4.02	
H2N-Gly-Gly-Glu-Gly-Gly-Glu-Gly-Lys(CY™5)-COOH (H-GGEGGEGK(Cy5)-OH) [xxiv]		4.42	
DTDMVLIPAGVPR [tryptic yeast peptide identified after focusing in IPG strips 3.7-4.05]	3.808		
DADLLNSVVVQR [tryptic yeast peptide identified after focusing in IPG strips 3.7-4.05]	3.775		
DGDQVVFMVSQK [tryptic yeast peptide identified after focusing in IPG strips 3.7-4.05]	3.760		
DIDILVNNAGK [tryptic yeast peptide identified after focusing in IPG strips 3.7-4.05]	3.828		
DLDLPTQQILVAR [tryptic yeast peptide identified after focusing in IPG strips 3.7-4.05]	3.830		
DLDAVNGSNGSK [tryptic yeast peptide identified after focusing in IPG strips 3.7-4.05]	3.790		
DTDYVPIVVVGNK [tryptic yeast peptide identified after focusing in IPG strips 3.7-4.05]	3.840		
DCDSLSSLVTR [tryptic yeast peptide identified after focusing in IPG strips 3.7-4.05]	3.765		
DNDVQLAATK [tryptic yeast peptide identified after focusing in IPG strips 3.7-4.05]	3.800		
DIDNGYTLSLMYK [tryptic yeast peptide identified after focusing in IPG strips 3.7-4.05]	3.800		
DSDYIPVVVVGNK [tryptic yeast peptide identified after focusing in IPG strips 3.7-4.05]	3.825		
DVDLVNAAR [tryptic yeast peptide identified after focusing in IPG strips 3.7-4.05]	3.800		
H2N-Glu-Gly-Glu-Gly-Lys(CY™5)-COOH (H-EGEGK(Cy5)-OH) [xxiii]		4.28	
